Measured values published in the supplement of paper PMC7877785.
± gives the uncertainty stated by the source.

Experiment: self-splicing fitness, log relative to wild type (ln ratio); higher = more splicing; Tetrahymena group I intron in knt gene, E. coli kanamycin selection, DiMSum; sequences stand for … in CUCUCU…GGAGGGAAAAGUUAUCAGGCAUGCACCUGGUAGCUAGUCUUUAAACCAAUAGAUUGCAUCGGUUUAAAAGGCAAGACCGUCAAAUUGCGGGAAAGGGGUCAACAGCCGUUCAGUACCAAGUCUCAGGGGAAACUUUGAGAUGGCCUUGCAAAGGGUAUGGUAAUAAGCUGACGGACAUGGUCCUAACCACGCAGCCAAGUCCUAAGUCAACAGAUCUUCUGUUGAUAUGGAUGCAGUUCACAGACUAAAUGUCGGUCGGGGAAGAUGUAUUCUUCUCAUAAGAUAUAGUCGGACCUCUCCUUAAUGGGAGCUAGCGGAUGAAGUGAUGCAACACUGGAGCCGCUGGGAACUAAUUUGUAUGCGAAAGUAUAUUGAUUAGUUUUGGAGUACUCGUGGUCG
In short: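 Six replicate transformations of E. coli BL21(DE3) with a pET-22b(+) library were grown overnight at 37°C or 30°C. The library randomised all eight P1ex-region intron nucleotides, the intron lying in the knt kanamycin-resistance gene, and plates were LB agar with or without 25 μg/mL kanamycin plus 100 μg/mL carbenicillin, 50 μM IPTG and 0.2% rhamnose. Pooled colonies were amplicon-sequenced on an Illumina HiSeq 2500, and fitness is the DiMSum error-weighted combination of wild-type-normalised replicate fold changes, kanamycin versus none.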

Sequence | self-splicing fitness (ln) (30 °C) | self-splicing fitness (ln) (37 °C)
UGGUAGCAAUAUUACGCCAA | -1.77 ± 0.15 | -0.723 ± 0.12
UGGUAGCAAUAUUACGCUAU | -4.7 ± 0.42 | -2.87 ± 0.23
UGGUAGCAAUAUUACGGAAU |  | -0.962 ± 0.23
UGGUAGCAAUAUUACGGCAG | -1.15 ± 0.13 | 0.129 ± 0.17
UGGUAGCAAUAUUACGGCUG | -1.99 ± 0.15 | -0.886 ± 0.26
UGGUAGCAAUAUUACGGGCA | -0.0931 ± 0.13 | 0.591 ± 0.13
UGGUAGCAAUAUUACGGGCC | -1.4 ± 0.23 | 
UGGUAGCAAUAUUACGGGGA | -2.58 ± 0.26 | -2.18 ± 0.18
UGGUAGCAAUAUUACGGGUC | -3.15 ± 0.4 | -2.9 ± 0.47
UGGUAGCAAUAUUACGGUAA | -1.34 ± 0.18 | -0.209 ± 0.12
UGGUAGCAAUAUUACGGUCA | -0.695 ± 0.097 | -0.176 ± 0.1
UGGUAGCAAUAUUACGGUGU | -4.11 ± 0.31 | -0.563 ± 0.13
UGGUAGCAAUAUUACGUAUA | -1.51 ± 0.14 | -0.00881 ± 0.14
UGGUAGCAAUAUUACGUCAC |  | -1.37 ± 0.45
UGGUAGCAAUAUUACGUCUG | -0.683 ± 0.11 | 0.409 ± 0.17
UGGUAGCAAUAUUACGUUCC | -2.33 ± 0.23 | -1.19 ± 0.36
UGGUAGCAAUAUUACGUUGG | -1.4 ± 0.12 | -1.7 ± 0.14
UGUAAGCAAUAUUACGAGAU | -3.71 ± 0.3 | -3.14 ± 0.37
UGUAAGCAAUAUUACGAUAG | -1.44 ± 0.25 | -1.87 ± 0.29
UGUAAGCAAUAUUACGAUGA | -0.986 ± 0.098 | -0.393 ± 0.13
UGUAAGCAAUAUUACGCAGC | -3.28 ± 0.35 | -1.44 ± 0.19
UGUAAGCAAUAUUACGCAUC | -3.16 ± 0.31 | -1.74 ± 0.23
UGUAAGCAAUAUUACGCCGU | -2.48 ± 0.26 | -3.08 ± 0.47
UGUAAGCAAUAUUACGCGGA | -1.91 ± 0.26 | -1.29 ± 0.2
UGUAAGCAAUAUUACGGCAC | -1.49 ± 0.24 | -1.48 ± 0.42

Sequence | self-splicing fitness (ln) (30 °C) | self-splicing fitness (ln) (37 °C)
UGUAAGCAAUAUUACGGCCA | -0.0492 ± 0.076 | -0.0953 ± 0.12
UGUAAGCAAUAUUACGGCUU | -1.01 ± 0.12 | -1.15 ± 0.15
UGUAAGCAAUAUUACGGGCA | -0.98 ± 0.09 | 0.521 ± 0.1
UGUAAGCAAUAUUACGUGAC | -3.47 ± 0.33 | -1.77 ± 0.23
UGUAAGCAAUAUUACGUGGC | -4.03 ± 0.4 | -2.26 ± 0.37
UGUAAGCAAUAUUACGUUAC | -2.91 ± 0.22 | -3.12 ± 0.37
UGUAAGCAAUAUUACGUUAG | -1.56 ± 0.14 | -0.556 ± 0.17
UGUAAGCAAUAUUACGUUCG | 0.188 ± 0.095 | 0.33 ± 0.12
UGUAAGCAAUAUUACGUUUG | -1.24 ± 0.069 | -0.871 ± 0.084
UGUCAGCAAUAUUACGACUU | -1.14 ± 0.1 | 0.303 ± 0.16
UGUCAGCAAUAUUACGAGGU | -2.83 ± 0.33 | -2.81 ± 0.41
UGUCAGCAAUAUUACGAGUU | -1.33 ± 0.14 | -1.44 ± 0.2
UGUCAGCAAUAUUACGAUAA | -0.114 ± 0.06 | 0.438 ± 0.074
UGUCAGCAAUAUUACGCAAU | -1.81 ± 0.14 | -2.24 ± 0.2
UGUCAGCAAUAUUACGCAGU | -1.27 ± 0.18 | -0.898 ± 0.27
UGUCAGCAAUAUUACGCAUG | -0.692 ± 0.077 | 0.415 ± 0.097
UGUCAGCAAUAUUACGCCCA | 0.0616 ± 0.14 | 0.348 ± 0.18
UGUCAGCAAUAUUACGCGCG | -0.708 ± 0.14 | 0.0603 ± 0.13
UGUCAGCAAUAUUACGCGUG | 0.623 ± 0.069 | 0.117 ± 0.098
UGUCAGCAAUAUUACGGAGG | -1.68 ± 0.072 | -0.948 ± 0.097
UGUCAGCAAUAUUACGGAGU | -3.6 ± 0.17 | -1.96 ± 0.15
UGUCAGCAAUAUUACGGCCU | -0.452 ± 0.23 | 0.483 ± 0.3
UGUCAGCAAUAUUACGGCUA | 0.131 ± 0.094 | 0.327 ± 0.12
UGUCAGCAAUAUUACGGGUA | -0.294 ± 0.093 | 0.208 ± 0.11
UGUCAGCAAUAUUACGGGUG | -0.605 ± 0.042 | -0.00626 ± 0.067

Sequence | self-splicing fitness (ln) (30 °C) | self-splicing fitness (ln) (37 °C)
UGUCAGCAAUAUUACGGUAG | -0.675 ± 0.07 | -0.235 ± 0.091
UGUCAGCAAUAUUACGUAAG | -0.352 ± 0.07 | 0.0208 ± 0.087
UGUCAGCAAUAUUACGUAGC | -3.11 ± 0.2 | -2.17 ± 0.19
UGUCAGCAAUAUUACGUCCG | -0.177 ± 0.17 | 0.083 ± 0.2
UGUCAGCAAUAUUACGUCUA | 0.314 ± 0.096 | -0.489 ± 0.1
UGUCAGCAAUAUUACGUGAC | -2.8 ± 0.21 | -2.81 ± 0.26
UGUCAGCAAUAUUACGUGGA | -1.92 ± 0.1 | -0.49 ± 0.11
UGUCAGCAAUAUUACGUUCC | -1.82 ± 0.19 | -0.73 ± 0.25
UGUCAGCAAUAUUACGUUCU | -1.16 ± 0.071 | -0.142 ± 0.073
UGUCAGCAAUAUUACGUUGC |  | -1.75 ± 0.46
UGUCAGCAAUAUUACGUUUA | -0.825 ± 0.095 | -0.114 ± 0.089
UGUGAGCAAUAUUACGAACA | -0.691 ± 0.42 | -0.543 ± 0.45
UGUGAGCAAUAUUACGACCA | -1.27 ± 0.17 | -0.0518 ± 0.21
UGUGAGCAAUAUUACGAGGU | -3.52 ± 0.26 | -2.55 ± 0.23
UGUGAGCAAUAUUACGAGUU | -2.72 ± 0.22 | -1.97 ± 0.27
UGUGAGCAAUAUUACGCCCG | -0.83 ± 0.47 | -1.17 ± 0.42
UGUGAGCAAUAUUACGCGUG | -1.92 ± 0.11 | -1.75 ± 0.11
UGUGAGCAAUAUUACGGCCC | -1.88 ± 0.33 | -1.43 ± 0.44
UGUGAGCAAUAUUACGGCCU | -1.89 ± 0.27 | -1.18 ± 0.32
UGUGAGCAAUAUUACGGCUG | -0.445 ± 0.12 | -0.456 ± 0.19
UGUGAGCAAUAUUACGGGCC | -3 ± 0.31 | -3.45 ± 0.39
UGUGAGCAAUAUUACGGUCG | -0.638 ± 0.094 | -0.935 ± 0.12
UGUGAGCAAUAUUACGGUGA | -2.19 ± 0.31 | -1.67 ± 0.2
UGUGAGCAAUAUUACGGUUG | -2.98 ± 0.19 | -2.17 ± 0.23
UGUGAGCAAUAUUACGUCCU | -0.548 ± 0.1 | -1.51 ± 0.18

Sequence | self-splicing fitness (ln) (30 °C) | self-splicing fitness (ln) (37 °C)
UGUGAGCAAUAUUACGUCGU | -2.1 ± 0.3 | 
UGUGAGCAAUAUUACGUGAC | -4.58 ± 0.32 | -3.08 ± 0.25
UGUGAGCAAUAUUACGUGGA | -2.53 ± 0.15 | -3.05 ± 0.22
UGUGAGCAAUAUUACGUUUA | -2.98 ± 0.32 | -3.17 ± 0.47
UGUGAGCAAUAUUACGUUUG | -2.21 ± 0.14 | -2.76 ± 0.26
UGUUAGCAAUAUUACGACGA | -0.147 ± 0.12 | 0.253 ± 0.15
UGUUAGCAAUAUUACGAGCC | -2.39 ± 0.22 | -0.493 ± 0.17
UGUUAGCAAUAUUACGAGCU | -0.427 ± 0.16 | 0.455 ± 0.19
UGUUAGCAAUAUUACGCAGU | -3.62 ± 0.27 | -2.48 ± 0.27
UGUUAGCAAUAUUACGCCCC |  | 0.337 ± 0.48
UGUUAGCAAUAUUACGCUUC |  | -1.5 ± 0.48
UGUUAGCAAUAUUACGGAAA |  | -2.24 ± 0.39
UGUUAGCAAUAUUACGGGGG | -3.91 ± 0.35 | -1.94 ± 0.36
UGUUAGCAAUAUUACGGGUU | -4.27 ± 0.42 | -1.58 ± 0.17
UGUUAGCAAUAUUACGUAAG | -0.949 ± 0.097 | -0.452 ± 0.14
UGUUAGCAAUAUUACGUCGA | -0.909 ± 0.12 | 0.0206 ± 0.13
UGUUAGCAAUAUUACGUCGC | -3.73 ± 0.18 | -2.23 ± 0.18
UUAAAGCAAUAUUACGAAGC | -3.34 ± 0.32 | -2.25 ± 0.28
UUAAAGCAAUAUUACGACAA | 0.44 ± 0.091 | 0.336 ± 0.11
UUAAAGCAAUAUUACGACGA | 0.0585 ± 0.12 | 0.0349 ± 0.12
UUAAAGCAAUAUUACGACGU | -0.129 ± 0.069 | 0.0726 ± 0.1
UUAAAGCAAUAUUACGACUU | -1.11 ± 0.1 | -0.0515 ± 0.14
